Test results as given in patent publication US20260242478A1 (published 2026).

Experiments:
[1] = biological target: T1, anti-CD28 scFv (VH - linker 1 - VL) (biotinylated (site not stated)); assay: phage ELISA as above; wells pre-incubated with soluble CD28 (competitor)
[2] = biological target: T1, anti-CD28 scFv (VH - linker 1 - VL); assay: phage ELISA; biotinylated anti-CD28 scFv on neutravidin plate, clonal phage supernatant, anti-M13-HRP;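 further: before the phage were added, wells were pre-incubated with soluble CD28 protein in blocking buffer, or with blocking buffer alone, and were not washed in between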
Method: Clonal phage were harvested as crude supernatants and screened via standard enzyme linked immunosorbent assays (ELISAs). […] Prior to the addition of clonal phage, wells were incubated with blocking buffer and CD28 soluble protein or blocking buffer alone. Without washing or aspirating, clonal phage supernatants were then added to the wells and incubated for a short time. Wells were then washed followed by detection of bound phage using a horse radish peroxidase conjugated anti-M13 antibody.

[3] = biological target: T2, Anti-CD28 scFv (VH - linker 1 - VL) (biotinylated (site not stated)); assay: as above
T2 construct: Biotinylated anti-CD28 scFv captured on neutravidin coated plates in the panning ELISA
T2 sequence (scFv, as listed by the source): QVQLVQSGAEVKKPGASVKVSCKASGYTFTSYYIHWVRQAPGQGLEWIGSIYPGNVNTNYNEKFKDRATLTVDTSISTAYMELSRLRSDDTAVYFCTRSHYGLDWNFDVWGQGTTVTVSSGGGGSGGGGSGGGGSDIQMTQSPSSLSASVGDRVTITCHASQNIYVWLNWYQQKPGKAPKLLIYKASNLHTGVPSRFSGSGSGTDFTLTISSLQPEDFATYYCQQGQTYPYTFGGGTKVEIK

[4] = biological target: T2, Anti-CD28 scFv (VH - linker 1 - VL); assay: phage ELISA as above; wells pre-incubated with soluble CD28 as competitor;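 further: crude clonal phage supernatants tested, with bound phage detected by HRP-conjugated anti-M13 antibody, and reference wells given blocking buffer without CD28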
PSMA Fab = biological target: T3, PSMA Fab; assay: competition ELISA; peptide 0-100 µM with 0.3 nM PSMA Fab on plate-captured biotinylated PSMA
T3 construct: also called 006 PSMA Fab; anti-PSMA Fab

T1 sequence (scFv, as listed by the source): as above

MSWCPIDLWSECFA [Phage-340 clonal phage peptide MSWCPIDLWSECFA]
CD28 scFv signal in presence of CD28 [1]: 0.148
CD28 scFv signal [2]: 1.99

B1: Phage-318 (peptide)
peptide: MDWCPMFLWDECFN
notes: Clonal phage of the Peptide-9 library; also called the position column gives F at position 7)
CD28 scFv signal [3]: 2.29
CD28 scFv signal in presence of CD28 [4]: 0.203

MDWCPRDLWTQCFF [Phage-343 clonal phage peptide MDWCPRDLWTQCFF]
CD28 scFv signal in presence of CD28 [1]: 0.119
CD28 scFv signal [2]: 1.93

MDWCPRTLWDQCFF [Phage-339 clonal phage peptide MDWCPRTLWDQCFF]
CD28 scFv signal in presence of CD28 [1]: 0.314
CD28 scFv signal [2]: 1.99

MFWCPITLWNECFN (Clonal phage of the Peptide-9 library) [Phage-326]
CD28 scFv signal [3]: 2.15
CD28 scFv signal in presence of CD28 [4]: 0.143

MDWCPRFLWDYCFA (Clonal phage of the Peptide-9 library) [Phage-335]
CD28 scFv signal [3]: 2.03
CD28 scFv signal in presence of CD28 [4]: 0.207

MDWCPRDLWYVCFA (Clonal phage of the Peptide-9 library) [Phage-321]
CD28 scFv signal [3]: 2.22
CD28 scFv signal in presence of CD28 [4]: 0.138

B2: Peptide-266 (peptide)
peptide: TAHHCKPAWMCTGF
notes: From the Peptide-180 optimisation phage library
IC50 (PSMA Fab): 1.81 µM

MDWCPRHLWDECFY (Clonal phage of the Peptide-9 library) [Phage-331]
CD28 scFv signal [3]: 2.13
CD28 scFv signal in presence of CD28 [4]: 0.146

B3: Peptide-264 (peptide)
peptide: VQIQCRPAWMCLGF
notes: as for B2
IC50 (PSMA Fab): 1.14 µM

MAWCPWYLWDECFN [Phage-348 clonal phage peptide MAWCPWYLWDECFN]
CD28 scFv signal in presence of CD28 [1]: 0.267
CD28 scFv signal [2]: 1.81

MDWCPRNLWHECFA [Phage-342 clonal phage peptide MDWCPRNLWHECFA]
CD28 scFv signal in presence of CD28 [1]: 0.175
CD28 scFv signal [2]: 1.97

MDWCPMNLWHECFA [Phage-351 clonal phage peptide MDWCPMNLWHECFA]
CD28 scFv signal in presence of CD28 [1]: 0.16
CD28 scFv signal [2]: 1.74

MDWCPRPLWHECFA [Phage-359 clonal phage peptide MDWCPRPLWHECFA]
CD28 scFv signal in presence of CD28 [1]: 0.138
CD28 scFv signal [2]: 1.44

MDWCPRYLWLECFN [Phage-354 clonal phage peptide MDWCPRYLWLECFN]
CD28 scFv signal in presence of CD28 [1]: 0.368
CD28 scFv signal [2]: 1.69

MDWCPTYLWNECFN (Clonal phage of the Peptide-9 library) [Phage-320]
CD28 scFv signal [3]: 2.24
CD28 scFv signal in presence of CD28 [4]: 0.606

MDWCPRALWDHCFN (Clonal phage of the Peptide-9 library) [Phage-328]
CD28 scFv signal [3]: 2.15
CD28 scFv signal in presence of CD28 [4]: 0.293

IDWCPLHLWHECYH [Phage-353 clonal phage peptide IDWCPLHLWHECYH]
CD28 scFv signal in presence of CD28 [1]: 0.182
CD28 scFv signal [2]: 1.69

MDWCPRYLWDECFS (Clonal phage of the Peptide-9 library) [Phage-334]
CD28 scFv signal [3]: 2.06
CD28 scFv signal in presence of CD28 [4]: 0.164

LDWCPRHLWALCFN [Phage-349 clonal phage peptide LDWCPRHLWALCFN]
CD28 scFv signal in presence of CD28 [1]: 0.24
CD28 scFv signal [2]: 1.78

MDWCPKPLWHVCFA [Phage-337 clonal phage peptide MDWCPKPLWHVCFA]
CD28 scFv signal in presence of CD28 [1]: 0.152
CD28 scFv signal [2]: 2.02

B4: Peptide-278 (peptide)
peptide: PEHLCLPRWMCEGF
notes: as for B2
IC50 (PSMA Fab): 2.4 µM

MDWCPMFLWHECFS [Phage-360 clonal phage peptide … (as printed)]
CD28 scFv signal in presence of CD28 [1]: 0.193
CD28 scFv signal [2]: 1.44

MHWCPRDLWHVCFN (Clonal phage of the Peptide-9 library) [Phage-327]
CD28 scFv signal [3]: 2.15
CD28 scFv signal in presence of CD28 [4]: 0.15

IDWCPRALWDACLA (Clonal phage of the Peptide-9 library) [Phage-332]
CD28 scFv signal [3]: 2.1
CD28 scFv signal in presence of CD28 [4]: 0.164

MDWCPRFLWNECFY [Phage-338 clonal phage peptide MDWCPRFLWNECFY]
CD28 scFv signal in presence of CD28 [1]: 0.287
CD28 scFv signal [2]: 2

B5: Peptide-262 (peptide)
peptide: IVPLCKPAWMCKLF
notes: as for B2
IC50 (PSMA Fab): 1.3 µM

MNWCPMHLWAECFN [Phage-363 clonal phage peptide MNWCPMHLWAECFN]
CD28 scFv signal in presence of CD28 [1]: 0.14
CD28 scFv signal [2]: 1.39

MDWCPRHLWHACFS [Phage-346 clonal phage peptide MDWCPRHLWHACFS]
CD28 scFv signal in presence of CD28 [1]: 0.167
CD28 scFv signal [2]: 1.83

MDWCPTYLWNVCFA (Clonal phage of the Peptide-9 library) [Phage-323]
CD28 scFv signal [3]: 2.21
CD28 scFv signal in presence of CD28 [4]: 0.132

MDFCPRFLWHECFN [Phage-345 clonal phage peptide MDFCPRFLWHECFN]
CD28 scFv signal in presence of CD28 [1]: 0.225
CD28 scFv signal [2]: 1.91

B6: Peptide-265 (peptide)
peptide: AEVKCIPQWMCQGF
notes: as for B2
IC50 (PSMA Fab): 1.78 µM

B7: Peptide-273 (peptide)
peptide: LEPLCVPRWMCVGF
notes: as for B2
IC50 (PSMA Fab): 0.9 µM

B8: Peptide-272 (peptide)
peptide: LHVYCVPEWMCAGF
notes: as for B2
IC50 (PSMA Fab): 1.92 µM

MDWCPRHLWHECFT (Clonal phage of the Peptide-9 library) [Phage-317]
CD28 scFv signal [3]: 2.3
CD28 scFv signal in presence of CD28 [4]: 0.32

MDWCPAYLWDECFA (Clonal phage of the Peptide-9 library) [Phage-325]
CD28 scFv signal [3]: 2.17
CD28 scFv signal in presence of CD28 [4]: 0.163

B9: Phage-330 (peptide)
peptide: MDWCPRFLWDVCFN
notes: as for B1
CD28 scFv signal [3]: 2.14
CD28 scFv signal in presence of CD28 [4]: 0.309

MDWCPTDLWHECFA (Clonal phage of the Peptide-9 library) [Phage-333]
CD28 scFv signal [3]: 2.07
CD28 scFv signal in presence of CD28 [4]: 0.154

MSWCPRDLWHLCFF (Clonal phage of the Peptide-9 library) [Phage-319]
CD28 scFv signal [3]: 2.27
CD28 scFv signal in presence of CD28 [4]: 0.319

B10: Peptide-276 (peptide)
peptide: ITPICKPAWICSGF
notes: as for B2
IC50 (PSMA Fab): 3.46 µM

MDWCPRLLWHECFN [Phage-357 clonal phage peptide MDWCPRLLWHECFN]
CD28 scFv signal in presence of CD28 [1]: 0.109
CD28 scFv signal [2]: 1.6

MDWCPRHLWYECFS (Clonal phage of the Peptide-9 library) [Phage-324]
CD28 scFv signal [3]: 2.17
CD28 scFv signal in presence of CD28 [4]: 0.163

MDWCPRHLWIECFN (Clonal phage of the Peptide-9 library) [Phage-322]
CD28 scFv signal [3]: 2.21
CD28 scFv signal in presence of CD28 [4]: 0.376

MDWCPIHLWYECFN [Phage-352 clonal phage peptide MDWCPIHLWYECFN]
CD28 scFv signal in presence of CD28 [1]: 0.203
CD28 scFv signal [2]: 1.73

MDWCPRDLWNWCFN [Phage-336 clonal phage peptide MDWCPRDLWNWCFN]
CD28 scFv signal in presence of CD28 [1]: 0.39
CD28 scFv signal [2]: 2.03

B11: Peptide-261 (peptide)
peptide: YFVQCRPAWMCEGF
notes: as for B2
IC50 (PSMA Fab): 1.3 µM

MDWCPMYLWDECFF [Phage-356 clonal phage peptide MDWCPMYLWDECFF]
CD28 scFv signal in presence of CD28 [1]: 0.178
CD28 scFv signal [2]: 1.65

B12: Peptide-269 (peptide)
peptide: EEPLCRPVWMCEGF
notes: as for B2
IC50 (PSMA Fab): 9.14 µM

MDWCPRHLWVHCFS [Phage-344 clonal phage peptide MDWCPRHLWVHCFS]
CD28 scFv signal in presence of CD28 [1]: 0.173
CD28 scFv signal [2]: 1.91

MDWCPTYLWHVCFS (Clonal phage of the Peptide-9 library) [Phage-315]
CD28 scFv signal [3]: 2.32
CD28 scFv signal in presence of CD28 [4]: 0.16

MDWCPRILWHECFS [Phage-362 clonal phage peptide MDWCPRILWHECFS]
CD28 scFv signal in presence of CD28 [1]: 0.174
CD28 scFv signal [2]: 1.39

MDWCPRHLWDECFN [Phage-341 clonal phage peptide MDWCPRHLWDECFN]
CD28 scFv signal in presence of CD28 [1]: 0.268
CD28 scFv signal [2]: 1.98

MHWCPRHLWSECFN [Phage-361 clonal phage peptide MHWCPRHLWSECFN]
CD28 scFv signal in presence of CD28 [1]: 0.478
CD28 scFv signal [2]: 1.43

MDWCPWFLWNECFN [Phage-350 clonal phage peptide MDWCPWFLWNECFN]
CD28 scFv signal in presence of CD28 [1]: 0.279
CD28 scFv signal [2]: 1.77

B13: Peptide-279 (peptide)
peptide: YERACIPNWICEGF
notes: as for B2
IC50 (PSMA Fab): 5.18 µM

B14: Phage-329 (peptide)
peptide: MDWCPRALWNVCFA
notes: Clonal phage of the Peptide-9 library; also called the position column gives N at position 14)
CD28 scFv signal [3]: 2.14
CD28 scFv signal in presence of CD28 [4]: 0.249
